Assay results published in patent US20220033501A1 (SHANGHAI PHARMAEXPLORER, published 2022).
Substitutions are numbered along the chain they refer to.

T1: monkey TIM-3 on CHOK1 stable cell line (CHOK1-cTIM-3) (monkey)
T1 chain: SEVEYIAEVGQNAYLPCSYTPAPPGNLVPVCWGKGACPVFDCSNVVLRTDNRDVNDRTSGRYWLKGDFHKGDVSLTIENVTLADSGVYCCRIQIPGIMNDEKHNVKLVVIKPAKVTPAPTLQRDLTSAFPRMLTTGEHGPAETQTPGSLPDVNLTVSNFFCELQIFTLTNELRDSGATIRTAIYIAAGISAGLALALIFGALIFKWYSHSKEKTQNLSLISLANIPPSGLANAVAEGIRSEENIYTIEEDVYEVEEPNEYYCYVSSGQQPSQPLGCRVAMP

T2: monkey TIM-3 protein with hFc tag (cTIM-3-hFc protein) (monkey; human)
T2 construct: Made in HEK293 cells; also called monkey TIM-3 extracellular domain protein; not shown: human IgG Fc fragment (hFc) of the pCpC vector
T2 chain: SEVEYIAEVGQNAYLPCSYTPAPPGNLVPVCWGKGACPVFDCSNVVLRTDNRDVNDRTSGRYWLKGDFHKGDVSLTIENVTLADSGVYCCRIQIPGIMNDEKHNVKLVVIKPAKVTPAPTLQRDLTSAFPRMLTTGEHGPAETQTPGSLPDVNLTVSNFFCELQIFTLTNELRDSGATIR

T3: murine TIM-3 protein with hFc tag (mTIM-3-hFc protein) (mouse; human, UniProt Q8VIM0 29-191)
T3 construct: Made in HEK293 cells; also called mouse TIM-3 extracellular domain protein; not shown: human IgG Fc fragment (hFc) of the pCpC vector
T3 chain: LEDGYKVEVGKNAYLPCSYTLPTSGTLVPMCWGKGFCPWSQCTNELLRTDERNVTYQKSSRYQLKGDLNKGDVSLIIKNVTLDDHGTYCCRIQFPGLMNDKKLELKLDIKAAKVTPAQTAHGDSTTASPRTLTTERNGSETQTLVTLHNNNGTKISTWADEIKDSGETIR

T4: murine TIM-3 extracellular domain protein with hFc tag (mTIM-3-hFc) (mouse, UniProt Q8VIM0 29-191)
T4 construct: also called mouse TIM-3 extracellular domain protein; not shown: human IgG Fc fragment (hFc) of the pCpC vector
T4 chain: T3 chain

T5: monkey TIM-3 extracellular domain protein with hFc tag (cTIM-3-hFc) (monkey)
T5 construct: not shown: human IgG Fc fragment (hFc) of the pCpC vector
T5 chain: T2 chain

B1: 57F4E5 fully human TIM-3 antibody (human IgG4, kappa) (antibody, V domains shown)
VH: EVQLVESGGGLVQPGGSLRLSCAASGFTFSSYWMSWVRQAPGKGLEWVANIKQDGSEKYYVDSVKGRFTISRDSAKNSLYLQMNSLRAEDTAMYFCARDSNFFDYWGQGTLVTVSS
VL: ETVMTQSPATLSVSPGERATLSCRASQSVSSNLAWYQRKPGQAPRLLIYFSSTRATGIPARFSGSGSGTEFTLTISSLQSEDFAVYYCQQYNNWPLTFGGGTKVEIK
B2: 134H3G6 fully human TIM-3 antibody (human IgG4, kappa) (antibody, V domains shown)
VH: EVQLVESGGGLVQPGGSLRLSCAASGFTFSNSWMTWVRQAPGKGLEWVANIKQAGTEKYYVDSVKGRFTISRDNAKNSLYLQMNSLRAEDTAVYYCNSGSNYFDYWGQGTLVTVSS
VL: B1 VL with T2I, S26R, S28N, V29F, S30Y, R38Q, F50G, S51A
B3: 215A8F2 fully human TIM-3 antibody (human IgG4, kappa) (antibody, V domains shown)
VH: QVQLQQWGAGLLKPSETLSLTCTVYGGSFSGYYWNWIRQPPGKGLEWLGEINHSGSTNYNPSLKRRVTISVDTSKNQFSLKLSSVTAADTAVYYCARVYYYGPFDFWGQGTLVTVSS
VL: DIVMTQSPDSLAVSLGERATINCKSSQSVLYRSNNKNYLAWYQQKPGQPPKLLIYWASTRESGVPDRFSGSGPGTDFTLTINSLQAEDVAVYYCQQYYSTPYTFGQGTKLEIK
B4: 7A4F10 fully human TIM-3 antibody (human IgG4, kappa) (antibody, V domains shown)
VH: EVQLLESGGGLVQPGGSLRLSCAASGFTFRTHLISWVRQAPGKGLEWVAAITGSGGSTYYADSVKGRFIISRDNSKNTLFLQMNSLRAEDTAVYYCAKDGGSGSYDDFWGQGTLVTVSS
VL: ETVLTQSPVTLSLSPGERATLSCRASQSVGSYLAWYQQKPGQAPRLLIYDASNRATGIPARFSGSGSGTDFTLTISSLEPEDFAVYYCQQRSNWPPTFGQGTKVEIK
B5: 18D2H2 (TIM-3 antibody purified from hybridoma, chimeric antibody of Example 2) (antibody, V domains shown)
VH: EVQLVESGGDLVQPGGSLRLSCAASGFTFSTYWMTWVRQAPGRGLEWVANIKQDGSAKYYVDSVKGRFTLSRDDAKNSLYLQMNSLRAEDTAVYYCARGSNWFDYWGQGTLVTVSS
VL: B1 VL with S26N, S28N, S30Y, R38Q, F50D, S51A, I58F
notes: From hybridoma of Harbour H2L2 transgenic mice: human variable regions, rat constant regions
B6: 134H3G6 (TIM-3 antibody purified from hybridoma, chimeric antibody of Example 2) (antibody, V domains shown)
VH: B2 VH
VL: B1 VL with T2I, S26R, S28N, V29F, S30Y, R38Q, F50G, S51A
notes: as for B5
B7: 57F4E5 (TIM-3 antibody purified from hybridoma, chimeric antibody of Example 2) (antibody, V domains shown)
VH: B1 VH
VL: B1 VL
notes: as for B5
B8: 39E5H1 (TIM-3 antibody purified from hybridoma, chimeric antibody of Example 2) (antibody, V domains shown)
VH: EVQLVESGGGLVQPGGSLRLSCAASGFTFSSYWMSWVRQAPGKGLEWVANIKRGGSERYYVDSVKGRFTISGDNAKNSVYLQMNSLRAEDTAVYYCARGSNWFDPWGQGTLVTVSS
VL: B1 VL with T10I, S30Y, R38Q, P40L, F50D, S51A, L96I, G100Q, K103R, V104L
notes: as for B5
B9: 215A8F2 (TIM-3 antibody purified from hybridoma, chimeric antibody of Example 2) (antibody, V domains shown)
VH: B3 VH
VL: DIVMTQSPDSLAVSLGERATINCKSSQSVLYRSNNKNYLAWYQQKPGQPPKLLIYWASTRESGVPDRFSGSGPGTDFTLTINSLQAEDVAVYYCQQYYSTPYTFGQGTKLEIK
notes: as for B5
B10: 34B6D8 (TIM-3 antibody purified from hybridoma, chimeric antibody of Example 2) (antibody, V domains shown)
VH: B8 VH with S31T, S35T, G44R, R53Q, S56G, E57D, R58K, G72T, V79L
VL: EIVMTQSPATLSMSPGERATLSCRASQSVYDNLAWYQQKPGQAPRLLIYGASTRATGIPARFSGSGSGTEFTLTISSLQSEDFALYYCQQYTHWPITFGQGTRLEIK
notes: as for B5
B11: 7A4F10 (TIM-3 antibody purified from hybridoma, chimeric antibody of Example 2) (antibody, V domains shown)
VH: B4 VH
VL: B4 VL
notes: as for B5

Biological target: T1, monkey TIM-3 on CHOK1 stable cell line …
Experiment: FACS, CHOK1-cTIM-3 cells, 8 nM antibody

Row | Mean fluorescence intensity | Binder
1 | 259 | B1
2 | 401 | B2
3 | 362 | B3
4 | 325 | B4

Biological target: T1, monkey TIM-3 on CHOK1 stable cell line …
Experiment: FACS, CHOK1-cTIM-3 cells, 40 nM antibody

Row | Mean fluorescence intensity | Binder
5 | 269 | B1
6 | 376 | B2
7 | 366 | B3
8 | 336 | B4

Biological target: T1, monkey TIM-3 on CHOK1 stable cell line …
Experiment: FACS, CHOK1-cTIM-3 cells, 0.013 nM antibody

Row | Mean fluorescence intensity | Binder
9 | 11.4 | B1
10 | 16.8 | B2
11 | 11.5 | B3
12 | 7.1 | B4

Biological target: T2, monkey TIM-3 protein with hFc tag …
Experiment: ELISA, coated cTIM-3-hFc; antibody 0.0667 nM
From the text: (§1) The amino acid sequence 22-200 of the extracellular domain of the human TIM-3 protein described in the step of Example 1 (as shown in SEQ ID NO. 71 in the sequence listing) was cloned into a pCpC vector having a human IgG Fc fragment (hFc), and transfected into HEK293 cells. The cell culture medium was collected, and purified to obtain the human TIM-3 protein with hFc tag (herein referred to as hTIM-3-hFc protein). The amino acid sequence 22-201 of the extracellular domain of the monkey TIM-3 protein (as shown in SEQ ID NO. 72 in the sequence listing) was cloned into a pCpC vector having a human IgG Fc fragment (hFc), and transfected into HEK293 cells. The cell culture medium was collected, and purified to obtain the monkey TIM-3 protein with hFc tag (herein referred to as cTIM-3-hFc protein). […] The cell culture medium was collected, and purified to obtain the murine TIM-3 protein with hFc tag (herein referred to as mTIM-3-hFc protein). Purified human, monkey, and mouse TIM-3 extracellular domain proteins (hTIM-3-hFc, cTIM-3-hFc, and mTIM-3-hFc) were diluted with PBS to a final concentration of 1.0 μg/ml and then added to a 96-well ELISA plate with 100 μl per well. The plate was sealed with plastic film and incubated overnight at 4° C. The plate was washed 4 times with the plate washing solution (PBS+0.01% Tween20) on the next day, and added with the blocking solution (PBS+0.01% Tween20+1% BSA) and sealed at room temperature for 1-2 hours. The blocking solution was poured out. 50-100 μl of the antibody sample to be tested was added to each well. The plate was incubated at 37° C. for 1-2 hours, and washed 2-3 times with plate washing solution (PBS+0. 01% Tween20). HRP (horseradish peroxidase) labeled secondary antibody was added. The plate was incubated at 37° C. for 1-2 hours, and washed 2-3 times with plate washing solution (PBS+0. 01% Tween20). […] of TMB substrate was added to each well. After incubated at room temperature for 15-30 minutes, the plate was added with […] stop solution (1.0N HCl) to each well. An ELISA plate reader (TiterMax 384plus, Molecular Device) was used to read the A450 nm value.

Row | OD450 | Binder
13 | 0.74 | B5
14 | 0.64 | B6
15 | 2.68 | B7
16 | 1.98 | B8
17 | 1.5 | B9
18 | 1.92 | B10
19 | 0.7 | B11

Biological target: T2, monkey TIM-3 protein with hFc tag …
Experiment: ELISA, coated cTIM-3-hFc; antibody 6.6667 nM
From the text: as §1

Row | OD450 | Binder
20 | 3.34 | B5
21 | 3.02 | B6
22 | 3.48 | B7
23 | 3.5 | B8
24 | 3.45 | B9
25 | 3.55 | B10
26 | 3.12 | B11

Biological target: T3, murine TIM-3 protein with hFc tag …
Experiment: ELISA, coated mTIM-3-hFc; antibody 0.0001 nM
From the text: as §1

Row | OD450 | Binder
27 | 0.64 | B5
28 | 0.64 | B6
29 | 0.63 | B7
30 | 0.64 | B8
31 | 0.63 | B9
32 | 0.62 | B10
33 | 0.65 | B11

Biological target: T3, murine TIM-3 protein with hFc tag …
Experiment: ELISA, coated mTIM-3-hFc; antibody 0.0667 nM
From the text: as §1

Row | OD450 | Binder
34 | 0.67 | B5
35 | 0.65 | B6
36 | 0.64 | B7
37 | 0.68 | B8
38 | 0.67 | B9
39 | 0.68 | B10
40 | 0.62 | B11

Biological target: T4, murine TIM-3 extracellular domain …
Experiment: ELISA, coated mouse TIM-3 ECD protein, 0 nM antibody

Row | OD450 | Binder
41 | 0.24 | B1
42 | 0.22 | B2
43 | 0.21 | B3
44 | 0.23 | B4

Biological target: T4, murine TIM-3 extracellular domain …
Experiment: ELISA, coated mouse TIM-3 ECD protein, 0.0007 nM antibody

Row | OD450 | Binder
45 | 0.23 | B1
46 | 0.21 | B2
47 | 0.21 | B3
48 | 0.22 | B4

Biological target: T4, murine TIM-3 extracellular domain …
Experiment: ELISA, coated mouse TIM-3 ECD protein, 0.0667 nM antibody

Row | OD450 | Binder
49 | 0.33 | B1
50 | 0.21 | B2
51 | 0.31 | B3
52 | 0.22 | B4

Biological target: T5, monkey TIM-3 extracellular domain …
Experiment: ELISA, coated monkey TIM-3 ECD protein, 0.0001 nM antibody

Row | OD450 | Binder
53 | 0.17 | B1
54 | 0.14 | B2
55 | 0.13 | B3
56 | 0.13 | B4

Biological target: T5, monkey TIM-3 extracellular domain …
Experiment: ELISA, coated monkey TIM-3 ECD protein, 66.667 nM antibody

Row | OD450 | Binder
57 | 3.42 | B1
58 | 3.11 | B2
59 | 3.24 | B3
60 | 3.26 | B4
